For 1 substance, stoichiometry N results are on record in paper PMC7113836.

The assay deals with HBcS-NadA-CFHbp (Hepatitis B Virus | Neisseria meningitidis strain MC58) (UniProt Q9JXV4). Put plainly: cryo-EM structure; single particle cryoelectron microscopy of purified HBcS-NadA-CFHbp VLPs; 3.4 Å map; HBc T = 4 crystal structure fitted and refined; method details in Supplementary Materials.

As to “HBcS-NadA-CFHbp (from UniProt Q9JXV4 157-274)”, the stoichiometry N – broadly, a count of units in the complex or per binding partner – amounted to 240 copies.
